Data taken from patent US20190142971A1, “FORMULATION AND DELIVERY OF MODIFIED NUCLEOSIDE, NUCLEOTIDE, AND NUCLEIC ACID COMPOSITIONS” (ModernaTX, Inc., priority 2013, published 2019).

How the values were obtained:
Type in all cases: in vivo
[1] = tested on: non-human primates (cynomolgus monkey); assay: Example 22: LNP IV in non-human primates, serum G-CSF/EPO ELISA (Tables 38, 39); settings: for Female NHP Serum G-CSF / EPO Concentration / Male NHP Serum G-CSF / EPO Concentration: 0.5 mg/kg IV
Procedure: LNP formulations, shown in Table 33 (above), were administered to non-human primates (NHP) (cynomolgus monkey) (n=2) as intravenous injection (IV). The NHP were administered a single modified mRNA IV dose of 0.5 mg/kg, 0.05 mg/kg or 0.005 mg/kg of G-CSF or EPO in a dose volume of 0.5 mL/kg. The NHPs were bled before dosing with the modified mRNA LNP formulations to determine protein expression in the serum and a baseline complete blood count. After administration with the G-CSF modified mRNA formulation the NHP were bled at 8, 24, 48 and 72 hours to determined protein expression. After administration with the EPO modified mRNA formulation the NHP were bled at 8, 24, 48, 72 hours and 7 days to determined protein expression.
Samples collected from the NHPs after they were administered with G-CSF or EPO modified mRNA formulations were analyzed by ELISA to determine protein expression. Neutrophil and reticulocyte count was also determined pre-dose, 24 hours, 3 days, 7 days, 14 days and 18 days after administration of the modified G-CSF or EPO formulation.

mice = assay: Example 65: G-CSF/EPO mRNA in saline in mice, serum protein at 13 hours (Table 97); settings: EPO group; 100 ug, 100 μl/mouse, F. buffer, 13 hours after injection
Procedure: The mice were bled at 13 hours after the injection to determine the concentration of the human polypeptide in serum in pg/mL. (G-CSF groups measured human G-CSF in mouse serum and EPO groups measured human EPO in mouse serum).

[2] = tested on: non-human primates (cynomolgus monkey); assay: Example 21: LNP IV in non-human primates, serum EPO/G-CSF ELISA (Table 37); settings: for protein expression detectable out to: NHP IV
Procedure: Formulations, listed in Table 33, were characterized by particle size, zeta potential, and encapsulation.
LNP formulations, shown in Table 33 (above), were administered to non-human primates (NHP) (cynomolgus monkey) (n=2) as a bolus intravenous injection (IV) over approximately 30 seconds using a hypodermic needle, which may be attached to a syringe/abbocath or butterfly if needed. The NHP were administered a single modified mRNA IV dose of 0.05 mg/kg of EPO or G-CSF or 0.005 mg/kg of EPO in a dose volume of 0.5 mL/kg. The NHPs were bled 5-6 days before dosing with the modified mRNA LNP formulations to determine protein expression in the serum and a baseline complete blood count. After administration with the modified mRNA formulation the NHP were bled at 8, 24, 48 and 72 hours to determined protein expression. At 24 and 72 hours after administration the complete blood count of the NHP was also determined. Protein expression of G-CSF and EPO was determined by ELISA. Urine from the NHPs was collected over the course of the entire experiment and analyzed to evaluate clinical safety. Samples were collected from the NHPs after they were administered with G-CSF or EPO modified mRNA formulations to determine protein expression using ELISA. Clinical chemistry, hematology, urinalysis and cytokines of the non-human primates were also analyzed.

B1: EPO: modified mRNA encoding human erythropoietin, SEQ ID NO: 7, Cap1, fully modified with 5-methylcytosine and pseudouridine; LNP NPA-060-1 in Examples 17-22 (nucleic acid)
chain: GGGAAAUAAGAGAGAAAAGAAGAGUAAGAAGAAAUAUAAGAGCCACCAUGGGAGUGCACGAGUGUCCCGCGUGGUUGUGGUUGCUGCUGUCGCUCUUGAGCCUCCCACUGGGACUGCCUGUGCUGGGGGCACCACCCAGAUUGAUCUGCGACUCACGGGUACUUGAGAGGUACCUUCUUGAAGCCAAAGAAGCCGAAAACAUCACAACCGGAUGCGCCGAGCACUGCUCCCUCAAUGAGAACAUUACUGUACCGGAUACAAAGGUCAAUUUCUAUGCAUGGAAGAGAAUGGAAGUAGGACAGCAGGCCGUCGAAGUGUGGCAGGGGCUCGCGCUUUUGUCGGAGGCGGUGUUGCGGGGUCAGGCCCUCCUCGUCAACUCAUCACAGCCGUGGGAGCCCCUCCAACUUCAUGUCGAUAAAGCGGUGUCGGGGCUCCGCAGCUUGACGACGUUGCUUCGGGCUCUGGGCGCACAAAAGGAGGCUAUUUCGCCGCCUGACGCGGCCUCCGCGGCACCCCUCCGAACGAUCACCGCGGACACGUUUAGGAAGCUUUUUAGAGUGUACAGCAAUUUCCUCCGCGGAAAGCUGAAAUUGUAUACUGGUGAAGCGUGUAGGACAGGGGAUCGCUGAUAAGCUGCCUUCUGCGGGGCUUGCCUUCUGGCCAUGCCCUUCUUCUCUCCCUUGCACCUGUACCUCUUGGUCUUUGAAUAAAGCCUGAGUAGGAAG
modifications: Cap1, 5-methylcytosine, pseudouridine
- Female NHP Serum G-CSF / EPO Concentration ([1]; 8 hours): 158,771 pg/ml
- Male NHP Serum G-CSF / EPO Concentration ([1]; 8 hours): 119,086 pg/ml
- Female NHP Serum G-CSF / EPO Concentration ([1]; 24 hours): 133,978 pg/ml
- Male NHP Serum G-CSF / EPO Concentration ([1]; 24 hours): 85,825 pg/ml
- Female NHP Serum G-CSF / EPO Concentration ([1]; 48 hours): 45,250 pg/ml
- Male NHP Serum G-CSF / EPO Concentration ([1]; 48 hours): 64,793 pg/ml
- Female NHP Serum G-CSF / EPO Concentration ([1]; 72 hours): 15,097 pg/ml
- Male NHP Serum G-CSF / EPO Concentration ([1]; 72 hours): 20,407 pg/ml
- Female NHP Serum G-CSF / EPO Concentration ([1]; 7 days): <7.8 pg/mL
- Male NHP Serum G-CSF / EPO Concentration ([1]; 7 days): <7.8 pg/mL
- Female NHP Serum G-CSF / EPO Concentration ([1]; Pre-bleed): <7.8 pg/mL
- Male NHP Serum G-CSF / EPO Concentration ([1]; Pre-bleed): <7.8 pg/mL
- protein expression not detected beyond ([1]; NHP IV): ≤ 7 days
- Average Protein Product, serum (human EPO) (mice): 72.03 pg/mL
- Average Serum Concentration ([2]; 0.005 mg/kg IV, 8 hours): 387 pg/mL
- Female NHP Serum Concentration ([2]; 0.005 mg/kg IV, 8 hours): 523 pg/mL
- Male NHP Serum Concentration ([2]; 0.005 mg/kg IV, 8 hours): 250 pg/mL
- Average Serum Concentration ([2]; 0.005 mg/kg IV, 24 hours): 208 pg/mL
- Female NHP Serum Concentration ([2]; 0.005 mg/kg IV, 24 hours): 302 pg/mL
- Male NHP Serum Concentration ([2]; 0.005 mg/kg IV, 24 hours): 113 pg/mL
- Average Serum Concentration ([2]; 0.005 mg/kg IV, 48 hours): <7.8 pg/mL
- Female NHP Serum Concentration ([2]; 0.005 mg/kg IV, 48 hours): <7.8 pg/mL
- Male NHP Serum Concentration ([2]; 0.005 mg/kg IV, 48 hours): <7.8 pg/mL
- Average Serum Concentration ([2]; 0.005 mg/kg IV, 72 hours): 0 pg/mL
- Female NHP Serum Concentration ([2]; 0.005 mg/kg IV, 72 hours): 0 pg/mL
- Male NHP Serum Concentration ([2]; 0.005 mg/kg IV, 72 hours): 0 pg/mL
- Average Serum Concentration ([2]; 0.005 mg/kg IV, Pre-bleed): 0 pg/mL
- Female NHP Serum Concentration ([2]; 0.005 mg/kg IV, Pre-bleed): 0 pg/mL
- Male NHP Serum Concentration ([2]; 0.005 mg/kg IV, Pre-bleed): 0 pg/mL
- Average Serum Concentration ([2]; 0.05 mg/kg IV, 8 hours): 13,465 pg/ml
- Female NHP Serum Concentration ([2]; 0.05 mg/kg IV, 8 hours): 19,858 pg/ml
- Male NHP Serum Concentration ([2]; 0.05 mg/kg IV, 8 hours): 7,072 pg/ml
- Average Serum Concentration ([2]; 0.05 mg/kg IV, 24 hours): 11,546 pg/ml
- Female NHP Serum Concentration ([2]; 0.05 mg/kg IV, 24 hours): 18,178 pg/ml
- Male NHP Serum Concentration ([2]; 0.05 mg/kg IV, 24 hours): 4,913 pg/ml
- Average Serum Concentration ([2]; 0.05 mg/kg IV, 48 hours): 2,895 pg/ml
- Female NHP Serum Concentration ([2]; 0.05 mg/kg IV, 48 hours): 5,291 pg/ml
- Male NHP Serum Concentration ([2]; 0.05 mg/kg IV, 48 hours): 498 pg/mL
- Average Serum Concentration ([2]; 0.05 mg/kg IV, 72 hours): 402 pg/mL
- Female NHP Serum Concentration ([2]; 0.05 mg/kg IV, 72 hours): 744 pg/mL
- Male NHP Serum Concentration ([2]; 0.05 mg/kg IV, 72 hours): 60 pg/mL
- Average Serum Concentration ([2]; 0.05 mg/kg IV, Pre-bleed): 0 pg/mL
- Female NHP Serum Concentration ([2]; 0.05 mg/kg IV, Pre-bleed): 0 pg/mL
- Male NHP Serum Concentration ([2]; 0.05 mg/kg IV, Pre-bleed): 0 pg/mL
- protein expression detectable out to ([2]; 0.005 mg/kg): 48 h
- protein expression detectable out to ([2]; 0.05 mg/kg): 72 h
